The text below walks through data of paper PMC12655427.

The target in test [1] is recombinant soluble human FcRn variant FcRn-P2A (FcRn heavy α-chain extracellular domain with β2-microglobulin) (human) (UniProt P55899). Put plainly: BLI; Octet RED96e; FcRn loaded at 5 µg/mL on HIS1K (anti-penta-HIS) biosensors; antibody 900 as analyte at 89.9 nM; global 1:1 model; pH 7.4–7.5.
The target of test [2] is recombinant soluble human FcRn variant FcRn-E2A (FcRn heavy α-chain extracellular domain with β2-microglobulin) (human) (UniProt P55899). The test is described as above.
The target in test [3] is recombinant soluble human FcRn variant FcRn-F2A (FcRn heavy α-chain extracellular domain with β2-microglobulin) (human) (UniProt P55899). Described as above.
Test [4] has as its target recombinant soluble human FcRn variant FcRn-P2A (FcRn heavy α-chain extracellular domain with β2-microglobulin) (human) (UniProt P55899). Put plainly: BLI; Octet RED96e; FcRn loaded at 5 µg/mL on HIS1K (anti-penta-HIS) biosensors; antibody 900 as analyte at 89.9 nM; global 1:1 model; pH 6.0–6.1.
Test [5] addresses recombinant soluble human FcRn variant FcRn-E2A (FcRn heavy α-chain extracellular domain with β2-microglobulin) (human) (UniProt P55899). The test is described as above.
Test [6] addresses recombinant soluble human FcRn variant FcRn-F2A (FcRn heavy α-chain extracellular domain with β2-microglobulin) (human) (UniProt P55899). Described as above.

Take “antibody 900 (variable regions of the light and heavy chains of the murine antibody 9E2 fused to the Fc fragment of human IgG1 with M252Y, S254T, T256E, E333A, H433K/N434F) (Fc fusion)”: the dissociation constant (Kd) in test [1] was 17.3 nM; in test [2], 15.8 nM; in test [3], 14.3 nM; in test [4], 3.15 nM; in test [5] it was 3.46 nM; in test [6], 4.13 nM.
